These results are taken from article PMC6548965, “Aptameric Probe Specifically Binding Protein Heterodimer Rather Than Monomers”.

The target of this data set is IAP-PLAP alkaline phosphatase heterodimer (Homo sapiens (Human), UniProt P09923;P05187 20-503;23-506, GPI-anchored, glycosylated). In words: flow; LoVo cells, binding buffer, 4 C. To be noted: copies: 1;1; label: FITC or AF647.
Sequence of IAP-PLAP alkaline phosphatase heterodimer (P09923 20-503, chain 1 of 2): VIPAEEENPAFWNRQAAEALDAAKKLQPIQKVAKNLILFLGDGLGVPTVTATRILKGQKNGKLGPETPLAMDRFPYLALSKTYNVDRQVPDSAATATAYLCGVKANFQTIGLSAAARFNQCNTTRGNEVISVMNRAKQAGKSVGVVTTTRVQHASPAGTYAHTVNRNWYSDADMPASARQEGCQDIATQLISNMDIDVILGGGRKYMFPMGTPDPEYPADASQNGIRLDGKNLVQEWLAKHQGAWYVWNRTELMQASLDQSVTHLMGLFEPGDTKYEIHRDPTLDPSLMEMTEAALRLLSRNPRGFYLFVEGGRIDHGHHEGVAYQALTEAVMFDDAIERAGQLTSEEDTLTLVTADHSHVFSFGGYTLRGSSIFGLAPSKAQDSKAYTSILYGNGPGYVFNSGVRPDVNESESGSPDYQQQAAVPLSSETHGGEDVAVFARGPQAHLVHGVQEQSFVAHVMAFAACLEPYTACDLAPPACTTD
Sequence of IAP-PLAP alkaline phosphatase heterodimer (P05187 23-506, chain 2 of 2): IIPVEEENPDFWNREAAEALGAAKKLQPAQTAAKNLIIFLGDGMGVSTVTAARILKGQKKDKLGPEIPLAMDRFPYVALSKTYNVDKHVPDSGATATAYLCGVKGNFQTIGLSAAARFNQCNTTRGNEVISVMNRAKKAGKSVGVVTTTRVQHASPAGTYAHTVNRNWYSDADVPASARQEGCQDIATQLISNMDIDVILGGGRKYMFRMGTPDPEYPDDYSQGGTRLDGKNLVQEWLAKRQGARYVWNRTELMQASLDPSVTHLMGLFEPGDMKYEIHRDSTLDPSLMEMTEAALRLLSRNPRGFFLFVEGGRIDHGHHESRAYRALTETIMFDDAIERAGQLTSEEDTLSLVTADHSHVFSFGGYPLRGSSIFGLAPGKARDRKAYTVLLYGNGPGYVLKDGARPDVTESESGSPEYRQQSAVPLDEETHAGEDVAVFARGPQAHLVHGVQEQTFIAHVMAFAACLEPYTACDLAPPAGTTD

B1: BG4 (ssDNA)
DNA: TAAAAAATAGGGGTCGGTGTGGGTGGTTATGATTGGCTTTTTTA
One may read the Kd as a measure of binding affinity in units of concentration. Lower therefore signals a tighter complex. B1 showed a Kd of 0.0115 ± 0.0023 µM.

B2: BG2c (ssDNA)
DNA: TAGGGGTCGGTGTGGGTGGTTATGATTGGC
In the case of B2, the Kd was found to be 0.0093 ± 0.0016 µM.
